Data from patent US20140179604A1 (U S A REPRESENTED BY THE DEPARTMENT OF VETERANS AFFAIRS, published 2014).
Non-standard residues stand in square brackets, D forms with d. *: point of attachment. Phe(F5) = N[C@@H](Cc1c(F)c(F)c(F)c(F)c1F)C(=O)O; Desaminotyrosyl = O=C(CCc1ccc(O)cc1)*; hArg = N=C(N)NCCCC[C@H](N)C(=O)O; Agmatine = N=C(N)NCCCCN*; Nle = CCCC[C@H](N)C(=O)O; Orn = NCCC[C@H](N)C(=O)O; Abu = CC[C@H](N)C(=O)O; GABA = NCCCC(=O)O

T1: GHRH receptor (membrane receptors of human anterior pituitary cells) (human) (UniProt Q02643)
T1 sequence (looked up): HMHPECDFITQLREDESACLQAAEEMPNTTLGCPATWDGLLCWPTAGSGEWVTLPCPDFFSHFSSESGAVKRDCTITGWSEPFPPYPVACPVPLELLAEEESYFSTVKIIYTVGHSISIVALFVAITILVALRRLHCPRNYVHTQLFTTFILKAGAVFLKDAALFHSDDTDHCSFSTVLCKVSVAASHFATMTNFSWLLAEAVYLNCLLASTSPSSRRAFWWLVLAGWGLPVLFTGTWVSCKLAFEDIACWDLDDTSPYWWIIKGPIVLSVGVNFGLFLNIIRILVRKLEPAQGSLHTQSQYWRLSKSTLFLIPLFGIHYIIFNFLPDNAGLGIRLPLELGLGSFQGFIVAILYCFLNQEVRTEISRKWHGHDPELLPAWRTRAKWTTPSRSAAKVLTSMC

T2: GHRH receptor (membrane receptors of human anterior pituitary cells) (human, UniProt Q02643 23-423)
T2 construct: whole, on cells; Native receptor in a membrane fraction of purchased normal human pituitaries, not intact cells; also called hGHRH receptor; human pituitary membrane homogenates
T2 sequence (looked up): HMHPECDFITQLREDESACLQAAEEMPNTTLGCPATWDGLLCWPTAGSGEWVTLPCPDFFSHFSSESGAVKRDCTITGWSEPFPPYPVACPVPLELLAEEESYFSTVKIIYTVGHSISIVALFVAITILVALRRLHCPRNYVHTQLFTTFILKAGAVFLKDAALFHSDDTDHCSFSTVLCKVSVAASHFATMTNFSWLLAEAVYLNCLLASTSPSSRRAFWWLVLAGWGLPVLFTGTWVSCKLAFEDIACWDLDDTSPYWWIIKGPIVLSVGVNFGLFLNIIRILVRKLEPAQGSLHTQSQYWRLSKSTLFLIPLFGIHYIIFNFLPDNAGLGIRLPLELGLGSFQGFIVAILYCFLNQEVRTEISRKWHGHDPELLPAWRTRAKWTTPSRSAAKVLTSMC


Legend:
[1] = target: T1, GHRH receptor (membrane receptors of human anterior pituitary cells) (human); assay: competition with [His1,125I-Tyr10,Nle27]hGHRH(1-32)NH2, human pituitary membranes
[2] = target: T2, GHRH receptor (membrane receptors of …); assay: as above
From the text: Normal human pituitaries were purchased from the National Hormone and Peptide Program (A. F. Parlow, Los Angeles, County Harbor—UCLA Medical Center, Torrance, Calif.).

[3] = target: T2, GHRH receptor (membrane receptors of …); assay: competition with 125I-[His1,Nle27]hGHRH(1-32)NH2, human pituitary membranes
From the text: Normal human pituitary was purchased from the National Hormone and Peptide Program (UCLA Medical Center, Torrance, Calif.).

[4] = target: T2, GHRH receptor (membrane receptors of …); assay: competition with 125I-JV-1-42, human pituitary membranes
From the text: (§1) Normal human pituitaries were purchased from the National Hormone and Peptide Program (A. F. Parlow, Los Angeles, County Harbor-UCLA Medical Center, Torrance, Calif.).

[5] = target: T2, GHRH receptor (membrane receptors of …); assay: as above; remark: listed apart in the source
Procedure: as §1
The final binding affinities were expressed as IC₅₀ values and were calculated by using the LIGAND PC computerized curve-fitting program of Munson and Rodbard as modified by McPherson.

Molecule | IC50 [1] [nM] | Relative affinity (Binding potency) vs GHRH (GHRH(1-29) = 1) [1] | IC50 [2] [nM] | Relative affinity (Binding potency) vs GHRH [2] | Relative affinity (Binding potency) vs JI-38 [2] [JI-38 = 1] | IC50 [3] [nM] | Relative affinity (Binding potency) compared to JI-38 [3] [JI-38 = 1] | Relative affinity (Binding potency) compared to hGHRH(1-29) [3] | IC50 [4] [nM] | Relative affinity (Binding potency) vs JI-38 [4] [JI-38 = 1] | IC50 [5] [nM] | Relative affinity (Binding potency) vs GHRH [5] | Relative affinity (Binding potency) vs JI-38 [5] [JI-38 = 1]
JI-36 (peptide) | 1.82 | 3.25 | – | – | – | – | – | – | – | – | – | – | –
JI-34 (peptide) | 1.37 | 4.32 | – | – | – | – | – | – | – | – | – | – | –
[Desaminotyrosyl][dA]DAIFTASYR[Orn]VL[Abu]QLSAR[Orn]LLQDI[Nle]DR[hArg]-NH2 (SMILES CCCC[C@H](NC(=O)[C@@H](NC(=O)[C@H](CC(=O)O)NC(=O)[C@H](CCC(N)=O)NC(=O)[C@H](CC(C)C)NC(=O)[C@H](CC(C)C)NC(=O)[C@H](CCCN)NC(=O)[C@H](CCCNC(=N)N)NC(=O)[C@H](C)NC(=O)[C@H](CO)NC(=O)[C@H](CC(C)C)NC(=O)[C@H](CCC(N)=O)NC(=O)[C@H](CC)NC(=O)[C@H](CC(C)C)NC(=O)[C@@H](NC(=O)[C@H](CCCN)NC(=O)[C@H](CCCNC(=N)N)NC(=O)[C@H](Cc1ccc(O)cc1)NC(=O)[C@H](CO)NC(=O)[C@H](C)NC(=O)[C@@H](NC(=O)[C@H](Cc1ccccc1)NC(=O)[C@@H](NC(=O)[C@H](C)NC(=O)[C@H](CC(=O)O)NC(=O)[C@@H](C)NC(=O)CCc1ccc(O)cc1)[C@@H](C)CC)[C@@H](C)O)C(C)C)[C@@H](C)CC)C(=O)N[C@@H](CC(=O)O)C(=O)N[C@@H](CCCNC(=N)N)C(=O)N[C@@H](CCCCNC(=N)N)C(N)=O, also called Peptide 23256) [P-23256 [Dat^1, D-Ala^2, Ala^8, Orn^12, Abu^15, Orn^21, Nle^27, Asp^28, Har^30]hGHRH(1-30)NH2] | – | – | 0.04 | 148 GHRH(1-29) = 1 | 48.7 | – | – | – | – | – | – | – | –
[Desaminotyrosyl]ADAIFTQSYR[Orn]VL[Abu]QLSAR[Orn]LLQDI[Nle]D[Agmatine] (SMILES CCCC[C@H](NC(=O)[C@@H](NC(=O)[C@H](CC(=O)O)NC(=O)[C@H](CCC(N)=O)NC(=O)[C@H](CC(C)C)NC(=O)[C@H](CC(C)C)NC(=O)[C@H](CCCN)NC(=O)[C@H](CCCNC(=N)N)NC(=O)[C@H](C)NC(=O)[C@H](CO)NC(=O)[C@H](CC(C)C)NC(=O)[C@H](CCC(N)=O)NC(=O)[C@H](CC)NC(=O)[C@H](CC(C)C)NC(=O)[C@@H](NC(=O)[C@H](CCCN)NC(=O)[C@H](CCCNC(=N)N)NC(=O)[C@H](Cc1ccc(O)cc1)NC(=O)[C@H](CO)NC(=O)[C@H](CCC(N)=O)NC(=O)[C@@H](NC(=O)[C@H](Cc1ccccc1)NC(=O)[C@@H](NC(=O)[C@H](C)NC(=O)[C@H](CC(=O)O)NC(=O)[C@H](C)NC(=O)CCc1ccc(O)cc1)[C@@H](C)CC)[C@@H](C)O)C(C)C)[C@@H](C)CC)C(=O)N[C@@H](CC(=O)O)C(=O)NCCCCNC(=N)N, Non-coded residues replacing another residue are written X) [JI-38 [Dat^1, Gln^8, Orn^12,21, Abu^15, Nle^27, Asp^28, Agm^29]hGHRH(1-29)NH2] | – | – | 1.95 | 3.03 GHRH(1-29) = 1 | 1 | 2.74 | 1 | 2.79 hGHRH(1-29)NH2 = 1 | 4.35 | 1 | 1.71 | 2.4 GHRH(1-29) = 1 | 1
[Desaminotyrosyl][dA]DAIFTNSYR[Orn]VL[Abu]QLSAR[Orn]LLQDI[Nle]SRQ[GABA]-NH2 (SMILES CCCC[C@H](NC(=O)[C@@H](NC(=O)[C@H](CC(=O)O)NC(=O)[C@H](CCC(N)=O)NC(=O)[C@H](CC(C)C)NC(=O)[C@H](CC(C)C)NC(=O)[C@H](CCCN)NC(=O)[C@H](CCCNC(=N)N)NC(=O)[C@H](C)NC(=O)[C@H](CO)NC(=O)[C@H](CC(C)C)NC(=O)[C@H](CCC(N)=O)NC(=O)[C@H](CC)NC(=O)[C@H](CC(C)C)NC(=O)[C@@H](NC(=O)[C@H](CCCN)NC(=O)[C@H](CCCNC(=N)N)NC(=O)[C@H](Cc1ccc(O)cc1)NC(=O)[C@H](CO)NC(=O)[C@H](CC(N)=O)NC(=O)[C@@H](NC(=O)[C@H](Cc1ccccc1)NC(=O)[C@@H](NC(=O)[C@H](C)NC(=O)[C@H](CC(=O)O)NC(=O)[C@@H](C)NC(=O)CCc1ccc(O)cc1)[C@@H](C)CC)[C@@H](C)O)C(C)C)[C@@H](C)CC)C(=O)N[C@@H](CO)C(=O)N[C@@H](CCCNC(=N)N)C(=O)N[C@@H](CCC(N)=O)C(=O)NCCCC(N)=O, also called MR-702; Peptide 29702) [P-29702 [Dat^1, D-Ala^2, Orn^12, Abu^15, Orn^21, Nle^27, Gln-Gab^30]hGHRH(1-30)NH2] | – | – | – | – | – | 3.3 | 0.83 | 2.31 hGHRH(1-29)NH2 = 1 | 0.86 | 5.06 | 0.05 | 81.2 GHRH(1-29) = 1 | 34.2

More lines, now with the values ahead:

IC50 [1] [nM] | Relative affinity (Binding potency) vs GHRH (GHRH(1-29) = 1) [1] | IC50 [2] [nM] | Relative affinity (Binding potency) vs GHRH [2] | Relative affinity (Binding potency) vs JI-38 [2] [JI-38 = 1] | IC50 [3] [nM] | Relative affinity (Binding potency) compared to JI-38 [3] [JI-38 = 1] | Relative affinity (Binding potency) compared to hGHRH(1-29) [3] | IC50 [4] [nM] | Relative affinity (Binding potency) vs JI-38 [4] [JI-38 = 1] | IC50 [5] [nM] | Relative affinity (Binding potency) vs GHRH [5] | Relative affinity (Binding potency) vs JI-38 [5] [JI-38 = 1] | Molecule
– | – | – | – | – | 2.16 | 1.27 | 3.54 hGHRH(1-29)NH2 = 1 | 0.33 | 13.2 | 0.07 | 58 GHRH(1-29) = 1 | 24.4 | [Desaminotyrosyl][dA]DAI[Phe(F5)]TNSYR[Orn]VL[Abu]QLSAR[Orn]LLQDI[Nle]SR[GABA]-NH2 (SMILES CCCC[C@H](NC(=O)[C@@H](NC(=O)[C@H](CC(=O)O)NC(=O)[C@H](CCC(N)=O)NC(=O)[C@H](CC(C)C)NC(=O)[C@H](CC(C)C)NC(=O)[C@H](CCCN)NC(=O)[C@H](CCCNC(=N)N)NC(=O)[C@H](C)NC(=O)[C@H](CO)NC(=O)[C@H](CC(C)C)NC(=O)[C@H](CCC(N)=O)NC(=O)[C@H](CC)NC(=O)[C@H](CC(C)C)NC(=O)[C@@H](NC(=O)[C@H](CCCN)NC(=O)[C@H](CCCNC(=N)N)NC(=O)[C@H](Cc1ccc(O)cc1)NC(=O)[C@H](CO)NC(=O)[C@H](CC(N)=O)NC(=O)[C@@H](NC(=O)[C@H](Cc1c(F)c(F)c(F)c(F)c1F)NC(=O)[C@@H](NC(=O)[C@H](C)NC(=O)[C@H](CC(=O)O)NC(=O)[C@@H](C)NC(=O)CCc1ccc(O)cc1)[C@@H](C)CC)[C@@H](C)O)C(C)C)[C@@H](C)CC)C(=O)N[C@@H](CO)C(=O)N[C@@H](CCCNC(=N)N)C(=O)NCCCC(N)=O, also called MR-502; Peptide 25502) [P-25502 [Dat^1, D-Ala^2, Fpa5^6, Orn^12, Abu^15, Orn^21, Nle^27, Gab^30]hGHRH(1-30)NH2]
– | – | – | – | – | – | – | – | 0.52 | 8.37 | 0.04 | 102 GHRH(1-29) = 1 | 42.7 | [Desaminotyrosyl][dA]DAIFTQSYR[Orn]VL[Abu]QLSAR[Orn]LLQDI[Nle]D[Agmatine] (SMILES CCCC[C@H](NC(=O)[C@@H](NC(=O)[C@H](CC(=O)O)NC(=O)[C@H](CCC(N)=O)NC(=O)[C@H](CC(C)C)NC(=O)[C@H](CC(C)C)NC(=O)[C@H](CCCN)NC(=O)[C@H](CCCNC(=N)N)NC(=O)[C@H](C)NC(=O)[C@H](CO)NC(=O)[C@H](CC(C)C)NC(=O)[C@H](CCC(N)=O)NC(=O)[C@H](CC)NC(=O)[C@H](CC(C)C)NC(=O)[C@@H](NC(=O)[C@H](CCCN)NC(=O)[C@H](CCCNC(=N)N)NC(=O)[C@H](Cc1ccc(O)cc1)NC(=O)[C@H](CO)NC(=O)[C@H](CCC(N)=O)NC(=O)[C@@H](NC(=O)[C@H](Cc1ccccc1)NC(=O)[C@@H](NC(=O)[C@H](C)NC(=O)[C@H](CC(=O)O)NC(=O)[C@@H](C)NC(=O)CCc1ccc(O)cc1)[C@@H](C)CC)[C@@H](C)O)C(C)C)[C@@H](C)CC)C(=O)N[C@@H](CC(=O)O)C(=O)NCCCCNC(=N)N, also called Peptide 20350; MR-350) [P-20350 [Dat^1, D-Ala^2, Gln^8, Orn^12, Abu^15, Orn^21, Nle^27, Asp^28, Agm^29]hGHRH(1-29)NH2]
